From patent publication US20260028412A1 (PRECISION BIOSCIENCES, published 2026)
Positions count from the first letter of the chain named. Each block holds one molecule with its values, some of them ahead of it.

Key:
[1] = molecular target: human BCMA expressed on the cell surface (human) (UniProt Q02223); assay: flow cytometry on K562-BCMA cells, goat anti-human IgG secondary
[2] = molecular target: His-tagged BCMA protein (Homo sapiens (Human)) (UniProt Q02223); assay: biolayer interferometry (Octet RED96), His-tagged BCMA loaded on Anti-Penta-HIS (HIS1K) sensors, antibody as analyte at 138.9 nM
[3] = molecular target: His-tagged BCMA protein (Homo sapiens (Human)) (UniProt Q02223); assay: Octet RED96, His-tagged BCMA on anti-His biosensor tips, antibody as analyte
[4] = molecular target: human BCMA expressed on the cell surface (human) (UniProt Q02223); assay: flow cytometry on K562-BCMA cells, secondary antibody only
His-tagged BCMA protein [5] = molecular target: T1, His-tagged BCMA protein (Homo sapiens (Human), UniProt Q02223 1-54); assay: biolayer interferometry (Octet RED96), His-tagged BCMA loaded on Anti-Penta-HIS (HIS1K) sensors, antibody as analyte at 138.9 nM
T1 construct: not shown: His tag
T1 sequence: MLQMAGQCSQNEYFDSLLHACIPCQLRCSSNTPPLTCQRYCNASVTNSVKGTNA
Protocol: (§1) Four full length antibodies were analyzed using the OctetRED96 technology for assessment of binding affinity by measurement of the equilibrium dissociation constant (KD). Within the group of four were the two candidate anti-BCMA antibodies (BCMA-3L/3H and BCMA-3L/20H), the positive anti-BCMA control described in Example 1, and the anti-CD19 negative control described in Example 1. In the experiment, His-tagged BCMA protein was loaded onto anti-His antibody coated biosensor tips and supplied antibodies were utilized as analytes to measure KD.

His-tagged BCMA protein [6] = molecular target: T1, His-tagged BCMA protein; assay: Octet RED96, His-tagged BCMA on anti-His biosensor tips, antibody as analyte
Protocol: as §1

% positive cells [4]: 0.18%
Molecule: goat anti-human IgG secondary antibody

koff (His-tagged BCMA protein [5]): 0.000458 s⁻¹ | kon (His-tagged BCMA protein [5]): 214000 M⁻¹ s⁻¹ | Kd (His-tagged BCMA protein [6]): 2.14 nM
B2: BCMA-3L/20H full-length IgG4 antibody (antibody, V domains shown)
VH: QIQLVQSGPELKKPGETVKISCKASGYTFTHYSINWVKRAPGKGLKWMGWINTETRESTYAYDFKGRFAFSLETSASTAYLQINNLKYEDTATYFCALDYKQAMDYWGQGTSVTVSS
VL: DIVLTQSPPSLAMSLGKRATISCRASESVTIPGQHLINWYQQKPGQPPKLLIQRASNVESGVPARFSGSGSRTDFTLTIDPVEEDDVAVYYCLQTRGIPRTFGGGTKLEIKR
notes: also called BCMA-3L/20H full length antibody; BCMA-3L/20H antibody clone

The remaining lines, values behind:

Molecule: full-length human IgG4 antibody expressing the anti-CD19 targeting moiety FMC63
% positive cells [1]: 1.2% | Response [2]: 0.0032

Molecule: positive control IgG4 anti-BCMA antibody (comprising the VH and VL regions of the C11D5.3 antibody described in WO 2010/104949)
Kd [3]: < 0.001 nM | % positive cells [1]: 10.1% | Response [2]: 2.31 | koff [2]: < 1e-07 s⁻¹ | kon [2]: 236000 M⁻¹ s⁻¹

B1: BCMA-3L/3H full-length IgG4 antibody (antibody, V domains shown)
VH: B2 VH with T55S, R56G, S58P, K101E, Q102S
VL: B2 VL
notes: also called BCMA-3L/3H full length antibody
koff (His-tagged BCMA protein [5]): 0.000333 s⁻¹ | kon (His-tagged BCMA protein [5]): 242000 M⁻¹ s⁻¹ | Kd (His-tagged BCMA protein [6]): 1.38 nM
